The values below come from publication PMC10636607 (Cell Reports, 2023).

Test [1] addresses His6-tagged SARS-CoV-2 receptor-binding domain (SARS-CoV-2, UniProt P0DTC2). The test is described as follows: BLI. The settings on record: both partners purified.
For test [2], the target named is biotinylated SARS-CoV-2 fusion peptide (SARS-CoV-2, biotin on the N-terminus). The test can be described thus: BLI. The settings on record: both partners purified.

B1: GAR12 Fab VL D50K (Fab, V domains shown)
VH: EVQLVQSGGGLVQPGGSLRLSCAASGFTFSSYAMSWVRQAPGKGLEWVLSISGSGGSTYYADSVKGRFTISIDNSKKTVYLQMNSLRAEDTAVYYCAKSGEQQLVQAEYFHHWGQGTLVTVSS
VL: DIQMTQSPSTLSASVGDRVTITCRASQSIGRWLAWYQQKPGKAPKLLIYKASSLESGVPSRFSGSGFGTEFTLTISSLQPDDFATYYCQQCDSLLTFGGGTKLEIK
For the molecule B1, in test [1], the “fold change in KD against the wild-type Fab” value turned out to be 44 fold.

B2: COV44-62 Fab VH R50W (Fab, V domains shown)
VH: QMQLMQSGAEVKKPGASVTVSCKASGDTFSDYRIHWVRQAPGQGLEWMGWMNPKSGDTNFAQKFQGRVTMTRDMSINTAYMTLSGLTFDDTALYYCASLLIVGGFDPLDDFEVWGQGTMVTISS
VL: QSALTQPPSASGSPGQSVTISCSGTSSDVGGYNFVSWYQHHPGKAPKILIYEVTKRPSGVPDRFSGSKSGNTASLTVSGLQAEDEADYYCSSYGGTNNLLFGGGTKLTVL
On to B2, for which, in test [2], the binding result was “no binding (tested: 33 nM, 100 nM, and 300 nM)”.
